{
  "source": "paper PMC7519303",
  "molecular_target": "SgmX-Strep (C-terminal Strep-tagged SgmX variant) (M. xanthus)",
  "experiment": "SDS/PAGE of the purified protein; purified SgmX-Strep; band of ~233 kDa, heat- and detergent-resistant dimer",
  "data": [
    {"substance": "SgmX-Strep (C-terminal Strep-tagged SgmX variant) (natural protein)", "values": [
      {"measurement": "stoichiometry N", "result": 2}
    ]}
  ]
}
